The results in this text go back to PMC6396125 (ACS Omega, 2019).

“And” between values parts separate entries of the source, which are not always exact repeats. Equal values may be shown once. Read-outs that look alike come from different tables or passages of the source. Ends that are not written are not given here.

For test [1], the target named is T1, L. lactis OppA (Lactococcus lactis subsp. lactis, UniProt Q07741).
T1 sequence (Q07741 35-600 limits assumed): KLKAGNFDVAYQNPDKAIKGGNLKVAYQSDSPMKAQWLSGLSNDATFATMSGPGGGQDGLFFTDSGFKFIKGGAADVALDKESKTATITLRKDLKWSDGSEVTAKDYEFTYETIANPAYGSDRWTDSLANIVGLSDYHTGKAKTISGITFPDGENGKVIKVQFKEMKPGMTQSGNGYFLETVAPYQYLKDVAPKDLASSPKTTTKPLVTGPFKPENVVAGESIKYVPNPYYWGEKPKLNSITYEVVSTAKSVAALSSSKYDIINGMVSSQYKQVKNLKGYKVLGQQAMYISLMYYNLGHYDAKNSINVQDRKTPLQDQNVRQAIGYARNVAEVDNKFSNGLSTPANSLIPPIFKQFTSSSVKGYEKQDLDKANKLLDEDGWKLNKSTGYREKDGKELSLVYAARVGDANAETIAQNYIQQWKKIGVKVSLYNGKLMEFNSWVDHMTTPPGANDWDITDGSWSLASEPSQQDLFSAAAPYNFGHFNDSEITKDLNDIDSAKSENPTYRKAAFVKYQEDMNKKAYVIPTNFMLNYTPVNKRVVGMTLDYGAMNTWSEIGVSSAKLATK
Description: Fluorescence anisotropy competition binding assay. On the technique in general: In fluorescence polarisation assays a small probe gives low polarisation when free and higher when bound to something large.

Test [2] has as its target Lactococcus lactis oligopeptide-binding protein A (OppA) (Lactococcus lactis subspecies cremoris MG1363). Description: fluorescence polarisation.
For test [3] the target is unchanged. Description: fluorescence polarisation. This is another data set of the same source.
Test [4] shares this target. The test can be described thus: fluorescence polarisation. This is another data set of the same source.
For test [5] the target is unchanged. The test can be described thus: fluorescence polarisation. This is another data set of the same source.
The target of test [6] is bradykinin labeled with sulforhodamine 101 on the C-terminus. Description: fluorescence polarisation.

The compound YGGFLRRIR [dynorphin-A (1–9)] came in with a Kd in test [1] of 13.3 ± 0.7 µM.

Turning to SFRNGVGSGVKKTSFRRAKQ [neuropeptide S], the “IC50 from competition binding assay” value in test [1] (pH 6, 30 °C, vs prebound bradykinin-SR101 (1 μM) + OppA (15 μM) mixture, at least 1 h, mean ± SD, n = 3) is reported as “no fit”.

Take bradykinin (peptide): the IC50 in test [2] is 5.1 µM and 5.3 µM and 5.6 µM; in test [3], 5.2 µM. Moreover, the Kd is < 0.1 µM and 0.31 µM in test [2]; 0.13 µM in test [3]; 0.4 µM in test [4]; 0.2 µM and 0.36 µM and 0.7 µM in test [5].

On to dynorphin-A (1–17) (peptide), for which, in test [3], the IC50 came to 11 µM and the Kd was 3.3 µM.

As for neuropeptide S, in test [3], the Kd amounted to 1800 µM.

In the case of “Lactococcus lactis oligopeptide-binding protein A (OppA) (natural protein)”, the Kd in test [6] is 22.9 µM and 15.4 µM.

In test [3], dynorphin-A (1–9) (peptide) displayed an IC50 of 34.2 µM and a Kd of 13.3 µM.

leu-enkephalin (peptide) displayed an IC50 in test [3] of 2000 µM.

In test [1], `CC[C@H](C)[C@H](NC(=O)[C@H](CCCNC(=N)N)NC(=O)[C@H](CCCNC(=N)N)NC(=O)[C@H](CC(C)C)NC(=O)[C@H](Cc1ccccc1)NC(=O)CNC(=O)CNC(=O)[C@@H](N)Cc1ccc(O)cc1)C(=O)N[C@@H](CCCNC(=N)N)C(=O)N1CCC[C@H]1C(=O)N[C@@H](CCCCN)C(=O)N[C@@H](CC(C)C)C(=O)N[C@@H](CCCCN)C(=O)N[C@@H](Cc1c[nH]c2ccccc12)C(=O)N[C@@H](CC(=O)O)C(=O)N[C@@H](CC(N)=O)C(=O)N[C@@H](CCC(N)=O)C(=O)O` [dynorphin-A (1–17)] showed a Kd of 3.3 ± 0.6 µM.

As for SLSQSKVLPVPQ [casein-derived peptide], the Kd in test [1] was determined as 0.2 ± 0.01 µM.

As usually defined, the Kd is the concentration at which binding is half-saturated. In general, IC50 refers to the concentration that inhibits the measured activity by half. Read a high IC50 as a need for much substance.
